Marks after values point to notes of the source that are not given here.
Experiments:
[1] = system: lung cancer cells H460; assay: Killing of tumor cells by stimulated T cells, CytoTox 96 non-radioactive cytotoxicity assay; details: T cells stimulated with 40 μg/mL for 4 days, effector-target ratio 20:1
Protocol: CytoTox 96 non-radioactive cytotoxicity assay was used to detect the killing effect of L1, L2, D1 and D2 polypeptides (40 μg/mL) on lung cancer cells H460 after stimulating human T lymphocytes for 4 days, respectively.

[2] = system: colon cancer cell line SW480; assay: as above; assay type: cell-based, human; details: effector-target ratio 30:1
Protocol: (§1) Three protein concentrations (20 μg/mL, 40 μg/mL, 80 μg/mL) of TAT-SHP2-N-SH2 fusion protein were selected to stimulate human T lymphocytes and the killing effect on tumor cells MDA-MB-231 and SW480, respectively at an effector-target ratio of 30:1 was detected by CytoTox 96 non-radioactive cytotoxicity assay.

[3] = system: breast cancer cell line MDA-MB-231; assay: as above; assay type: cell-based, human; details: effector-target ratio 30:1
Protocol: as §1

[4] = system: IL-2; assay: Cytokine IL-2 secreted by T lymphocytes; assay type: cell-based; details: T lymphocytes stimulated 3 days, compared with control group
Text: The T lymphocytes stimulated by recombinant TAT-N-SH2 fusion protein and L1 polypeptide for 3 days were collected to detect the level of cytokine IL-2 secreted.

[5] = system: PD-L1-KO-EMT6; assay: PD-L1 knockout EMT-6 breast cancer xenografts in BALB/c mice; assay type: in vivo
Text: Tumor weight of mice after 23 d dissection; b. Tumor size; c. Tumor growth curve; Unpaired t-test, compared with control group, *P<0.05, **P<0.01, ***P<0.001.
Recombinant TAT-N-SH2 fusion protein and L1 (TAT-SHP2-C-SH2) polypeptide target the ITIM motif of inhibitory receptors. […] To this end, we constructed a breast cancer EMT-6 cell line stably knocked out PD-L1 (PD-L1-KO-EMT6), inoculated into the mouse mammary fat pad, and the recombinant TAT-N-SH2 fusion protein (N5) and TAT-SHP2-C-SH2 polypeptide (C5) were administered by intraperitoneal injection at 5 μg/mouse, respectively and at the same time, a dose of 50 μg/mouse αPD-1 antibody (αPD-1) was used as the control drug.

[6] = system: MC38 colon cancer; assay: MC38 colon cancer mouse subcutaneous tumor-bearing model; assay type: in vivo, mice
Text: A subcutaneous tumor model of MC38 colon cancer mice was established.

[7] = system: T lymphocytes; assay: T lymphocyte apoptosis, Annexin V-FITC/PI flow cytometry; assay type: cell-based; details: 80 μg/mL, 3 days, PD-L1 coated plate, compared with control group
Protocol: The resuspended cells are added to different groups to treat untreated groups SHP2-NC, SHP2-N-SH2 (80 μg/mL), TAT-SHP2-C-SH2 polypeptide (80 μg/mL), and then continues to culture on EASY-T stimulated plates for 3 d (50 ng of PD-L1 antibody is added 3 hours before adding the cell mixture to coat a 24-well plate at 37° C.), and the cells are collected, detection by flow cytometry after FITC and PI staining; e According to the results of flow cytometry, the proportion of apoptotic cells is counted, compared with the control group, *p<0.05 or **p<0.01.
T lymphocytes were stimulated with recombinant TAT-N-SH2 fusion protein and L1 polypeptide for 3 days and the apoptosis of T lymphocytes in different treatment groups was detected by flow cytometry. […] FIG. 13e, according to the results of flow cytometry, the proportion of apoptotic cells was counted, compared with the control group, *p<0.05 or **p<0.01.

[8] = system: EMT breast cancer; assay: EMT breast cancer mouse subcutaneous tumor-bearing model; assay type: in vivo, mice
Protocol: Tumor weight of mice in different administration groups after 21 d dissection; b. Tumor size; Unpaired t-test, compared with control group, *p<0.05, **p<0.01, ***p<0.001.
We further evaluated the effects of TAT-SHP2SHP2-N-SH2 fusion protein and TAT-SHP2SHP2-C-SH2 polypeptide on tumor growth in mice by establishing a subcutaneous tumor-bearing model of EMT breast cancer mice. We used TAT-SHP2SHP2-C-SH2 polypeptide at 5 μg/mouse (C5), 10 μg/mouse (C10), 15 μg/mouse (C15) and 2 μg/mouse (N2), 5 μg/mouse (N5), 10 μg/mouse (N10), 15 μg/mouse (N15) of TAT-SHP2SHP2-N-SH2 fusion protein were administered by intraperitoneal injection and at the same time, the dose of 50 μg/mouse αPD-1 antibody (αPD-1) was used as the positive control drug.

[9] = system: EMT-6 breast cancer; assay: EMT-6 breast cancer in immune-deficient nude mice; assay type: in vivo; details: groups C5/N5, once every other day, 8 doses
Text: Tumor weight of mice after 21 d dissection; b. Tumor size; c. Tumor growth curve; NS: no statistical difference.
At the same time, we selected immune-deficient nude mice to inoculate EMT-6 breast cancer tumors. After 5 days of tumor formation, they were randomly divided into three groups with 6 mice in each group. Start the administration, the administration dose is the same as above, administered once every other day for a total of 8 doses, 4 days to measure tumor size, the growth curve was drawn, and the mice were sacrificed to measure the body weight on day 21.

[10] = system: MC38 colon cancer; assay: MC38 colon cancer in immunodeficient nude mice; assay type: in vivo
Text: Tumor weight of mice after 30 d dissection; b. Tumor size; c. Tumor growth curve; Unpaired t-test, compared with control group, NS: no statistical difference.
In order to exclude the direct inhibitory effect of recombinant TAT-N-SH2 fusion protein and L1 (TAT-SHP2-C-SH2) polypeptide on tumors, we selected immunodeficient nude mice to inoculate MC38 colon cancer tumors, and started administration 14 days after tumor formation, 4 days to measure the tumor volume, after 30 days, the mice were sacrificed for dissection, and the tumor weight was measured.

[11] = system: SW480; assay: Direct killing of tumor cells, zenCell owl live cell imaging; assay type: cell-based; details: 20, 40, 80 μg/mL, no T cells
Protocol: (§2) In order to detect whether the recombinant TAT-N-SH2 fusion protein and L1 polypeptide have direct killing effect on tumor cells, we co-cultured different concentrations (20 μg/mL, 40 μg/mL, 80 μg/mL) of recombinant TAT-N-SH2 fusion protein and L1 polypeptide with tumor cells MDA-MB-231 and SW480, and applied zenCell owl live cell dynamic imaging analysis system to observe its effect on tumor cells in real time.

[12] = system: MDA-MB-231; assay: as above; assay type: cell-based; details: 20, 40, 80 μg/mL, no T cells
Protocol: as §2

[13] = system: T lymphocytes; assay: T lymphocyte proliferation detected by CFSE; assay type: cell-based; details: 80 μg/mL, 3 days, control group 62.83%
Protocol: Compared with the control group, p>0.05 has no statistical significance.
To test whether recombinant TAT-N-SH2 fusion protein and L1 (TAT-SHP2-C-SH2) polypeptide can enhance the proliferation of T lymphocytes, we used 80 μg/mL TAT-SHP2-N-SH2 fusion protein and TAT-SHP2-C-SH2 polypeptide to stimulate T lymphocytes for 3 days, respectively, the proliferation of T lymphocytes was detected by CFSE.

[14] = system: ERK, AKT and JNK; assay: Phosphorylation of ERK, AKT and JNK in T lymphocytes, Western-blot; assay type: cell-based; details: T lymphocytes stimulated 3 days, compared with untreated group
Protocol: TAT-SHP2-N-SH2 fusion protein treatment group; c. TAT-SHP2 C-SH2 polypeptide treatment group; b, d. According to Western-blot results, with β-actin as an internal reference, grayscale analysis of the phosphorylation expression of JNK, AKT and ERK proteins mediated by T lymphocytes is performed. Unpaired t-test, compared with negative control, **p<0.01, NS has no statistical difference.
The T lymphocytes stimulated by recombinant TAT-N-SH2 fusion protein and L1 (TAT-SHP2-C-SH2) polypeptide for 3 days were collected to detect the changes in the phosphorylation levels of ERK, AKT and JNK molecules.

[15] = T cells stimulated with 20 μg/ml
[16] = T cells stimulated with 40 μg/ml
[17] = T cells stimulated with 80 μg/ml
[18] = Table 4, 1.25 μg/mouse intraperitoneal, 8 administrations
[19] = Table 4, 2.5 μg/mouse intraperitoneal, 8 administrations
[20] = Table 4, 5 μg/mouse intraperitoneal, 8 administrations
[21] = Table 4, 10 μg/mouse intraperitoneal, 8 administrations
[22] = Table 5, 5 μg/mouse intraperitoneal

## CC(C)C[C@@H](NC(=O)[C@H](NC(=O)[C@@H](Cc1ccccc1)NC(=O)[C@@H](CC(=O)O)NC(=O)CNC(=O)[C@H]1CCCN1C(=O)[C@@H](Cc1c[nH]cn1)NC(=O)[C@@H](CO)NC(=O)[C@@H](CCC(N)=O)NC(=O)[C@@H](CO)NC(=O)[C@@H](CCC(=O)O)NC(=O)[C@@H](CCCNC(=N)N)NC(=O)[C@H](NC(=O)[C@H]1CCCN1C(=O)[C@H]1CCCN1C(=O)[C@@H](CCCNC(=N)N)NC(=O)[C@@H](CCCNC(=N)N)NC(=O)[C@@H](CCCNC(=N)N)NC(=O)[C@@H](CCC(N)=O)NC(=O)[C@@H](CCCNC(=N)N)NC(=O)[C@@H](CCCNC(=N)N)NC(=O)[C@@H](CCCCN)NC(=O)[C@@H](CCCCN)NC(=O)[C@@H](CCCNC(=N)N)NC(=O)CNC(=O)[C@H](N)Cc1ccc(O)cc1)C(C)C)C(C)C)C(=O)O [D1]
[1]
  Cytotoxicity (%): 39.43 ± 1.31 %

## CC(C)C[C@H](NC(=O)[C@@H](NC(=O)[C@H](Cc1ccccc1)NC(=O)[C@H](CC(=O)O)NC(=O)CNC(=O)[C@@H]1CCCN1C(=O)[C@H](Cc1c[nH]cn1)NC(=O)[C@H](CO)NC(=O)[C@H](CCC(N)=O)NC(=O)[C@H](CO)NC(=O)[C@H](CCC(=O)O)NC(=O)[C@H](CCCNC(=N)N)NC(=O)[C@@H](NC(=O)[C@@H]1CCCN1C(=O)[C@@H]1CCCN1C(=O)[C@H](CCCNC(=N)N)NC(=O)[C@H](CCCNC(=N)N)NC(=O)[C@H](CCCNC(=N)N)NC(=O)[C@H](CCC(N)=O)NC(=O)[C@H](CCCNC(=N)N)NC(=O)[C@H](CCCNC(=N)N)NC(=O)[C@H](CCCCN)NC(=O)[C@H](CCCCN)NC(=O)[C@H](CCCNC(=N)N)NC(=O)CNC(=O)[C@@H](N)Cc1ccc(O)cc1)C(C)C)C(C)C)C(=O)O [L1, YGRKKRRQRRR-PP-VRESQSHPGDFVL]
[1]
  Cytotoxicity (%): 33.23 ± 2.32 %
[2]; [15]
  Cytotoxicity (%) SW480: 20.24 ± 8.943^ns %
[2]; [16]
  Cytotoxicity (%) SW480: 31.38 ± 3.779 %
[2]; [17]
  Cytotoxicity (%) SW480: 40.19 ± 8.373 %
[3]; [15]
  Cytotoxicity (%) MDA-MB-231: 5.933 ± 3.955^ns %
[3]; [16]
  Cytotoxicity (%) MDA-MB-231: 20.55 ± 1.157 %
[3]; [17]
  Cytotoxicity (%) MDA-MB-231: 34.8 ± 7.424 %

B1: TAT-SHP2-N-SH2 fusion protein: TAT penetrating peptide connected to N-terminal SH2 domain of SHP2 through glycine and serine (TAT-Gly-Ser-N-SH2); SEQ ID NO.:4 (protein)
chain: YGRKKRRQRRRGSRWFHPNITGVEAENLLLTRGVDGSFLARPSKSNPGDFTLSVRRNGAVTHIKIQNTGDYYDLYGGEKFATLAELVQYYMEHHGQLKEKNGDVIELKYPLN
modifications: the fusion protein
[4]
  level of IL-2 secreted by T lymphocytes: significantly increased
[5]; 5 μg/mouse intraperitoneal
  Tumor inhibition rate %: 60.5%
[5]; 5 μg/mouse intraperitoneal, dissection after 23 d
  Tumor weight (g): 0.34 ± 0.20** g
[5]; N5 and C5 5 μg/mouse, αPD-1 antibody 50 μg/mouse
  effect on growth of PD-L1-KO-EMT6 tumors: significantly inhibit the growth of PD-L1-KO-EMT6 tumors
[6]; [18]
  Tumor inhibition rate %: 55.3%
  Tumor weight: 0.36 ± 0.11 g
[6]; [19]
  Tumor inhibition rate %: 53.5%
  Tumor weight: 0.38 ± 0.11 g
[6]; [20]
  Tumor inhibition rate %: 80.9%
  Tumor weight: 0.16 ± 0.03 g
[6]; [21]
  Tumor inhibition rate %: 57.8%
  Tumor weight: 0.34 ± 0.08 g
[6]; [22]
  Tumor inhibition rate %: 77.1%
  Tumor weight: 0.26 ± 0.07 g
[7]
  apoptosis of T lymphocytes: significantly decreased
[8]; 2 μg/mouse intraperitoneal
  Tumor inhibition rate %: 54.9%
  Tumor weight (g): 0.56 ± 0.11* g
[8]; 5 μg/mouse intraperitoneal
  Tumor inhibition rate %: 70.3%
[8]; 5 μg/mouse intraperitoneal, dissection after 21 d
  Tumor weight (g): 0.37 ± 0.10** g
[8]; 10 μg/mouse intraperitoneal
  Tumor inhibition rate %: 63%
  Tumor weight (g): 0.46 ± 0.12** g
[8]; 15 μg/mouse intraperitoneal
  Tumor inhibition rate %: 47.9%
  Tumor weight (g): 0.64 ± 0.15* g
[9]
  Tumor inhibition rate %: 8.3%
[9]; day 21
  Tumor weight (g): 0.82 ± 0.13^ns g
[10]; groups C5/N5
  Tumor inhibition rate %: 9.9%
[10]; groups C5/N5, sacrificed after 30 days
  Tumor weight (g): 0.25 ± 0.06^ns g
[2]; [15]
  Cytotoxicity (%) SW480: 23.51 ± 1.432 %
[2]; [16]
  Cytotoxicity (%) SW480: 44.42 ± 5.78 %
[2]; [17]
  Cytotoxicity (%) SW480: 50.64 ± 2.068 %
[3]; [15]
  Cytotoxicity (%) MDA-MB-231: 15.11 ± 6.483^ns %
[3]; [16]
  Cytotoxicity (%) MDA-MB-231: 12.55 ± 3.037 %
[3]; [17]
  Cytotoxicity (%) MDA-MB-231: 21.78 ± 3.021 %
[11]
  direct toxic effect on tumor cells: no direct toxic effect
[12]
  direct toxic effect on tumor cells: no direct toxic effect
[13]
  proliferation rate of T lymphocytes: 61.05%
[14]
  phosphorylation levels of ERK, AKT and JNK: the expression levels of p-ERK and p-AKT in the TAT-SHP2-N-SH2 fusion protein stimulation group have the most obvious changes

— patent publication US12558403B2, “Anti-tumor fusion protein, preparation method therefor and application thereof” (GUANGDONG TAIHE MEDICINE SCIENCE & TECHNOLOGY CO., LTD, priority 2020, dated 2026)
